Assay [1] deals with SorLA Vps10p domain (human). Nature of the assay: SPR; Biacore 3000, CM5 chip; purified soluble receptor immobilized (66 to 86 fmol/mm^2), ligand injected at 5 ul/min, 25°C, 10 mM HEPES, 150 mM NaCl, 1.5 mM CaCl2, 1 mM EGTA, 0.005% Tween 20, pH 7.4; Langmuir 1:1 model, global fitting.
Assay [2] addresses T1, preformed sSorLA:IL-6 complex (human, UniProt Q92673 82-2137; P05231 30-212).
T1 construct: SorLA, human, luminal (extracellular) part, as m3; interleukin-6, human, recombinant, as m1; source: formed on the sensor chip: immobilized sSorLA exposed to IL-6 (100 nM)
Nature of the assay: SPR; immobilized sSorLA first exposed to IL-6 (100 nM), then fresh buffer with 100 nM sIL-6R injected; n = 3. The note with it: both partners purified.

For assay [3], the target named is T2, soluble SorLA (SorLA ectodomain, luminal part) (human, UniProt Q92673 82-2137).
T2 construct: SorLA, human, luminal (extracellular) part; The introduction says that the propeptide is cut off in late Golgi compartments; also called sSorLA; the entire extracellular part of SorLA
Description: SPR; Biacore 3000, CM5 chip; purified soluble receptor immobilized (66 to 86 fmol/mm^2), ligand injected at 5 ul/min, 25°C, 10 mM HEPES, 150 mM NaCl, 1.5 mM CaCl2, 1 mM EGTA, 0.005% Tween 20, pH 7.4; Langmuir 1:1 model, global fitting. The note with it: both partners purified. (In SPR one partner is held on a chip, and binding of the other changes the refractive index at the surface.)

The term Kd denotes the equilibrium constant for the complex coming apart.

T1 sequence (Q92673 82-2137, chain 1 of 2): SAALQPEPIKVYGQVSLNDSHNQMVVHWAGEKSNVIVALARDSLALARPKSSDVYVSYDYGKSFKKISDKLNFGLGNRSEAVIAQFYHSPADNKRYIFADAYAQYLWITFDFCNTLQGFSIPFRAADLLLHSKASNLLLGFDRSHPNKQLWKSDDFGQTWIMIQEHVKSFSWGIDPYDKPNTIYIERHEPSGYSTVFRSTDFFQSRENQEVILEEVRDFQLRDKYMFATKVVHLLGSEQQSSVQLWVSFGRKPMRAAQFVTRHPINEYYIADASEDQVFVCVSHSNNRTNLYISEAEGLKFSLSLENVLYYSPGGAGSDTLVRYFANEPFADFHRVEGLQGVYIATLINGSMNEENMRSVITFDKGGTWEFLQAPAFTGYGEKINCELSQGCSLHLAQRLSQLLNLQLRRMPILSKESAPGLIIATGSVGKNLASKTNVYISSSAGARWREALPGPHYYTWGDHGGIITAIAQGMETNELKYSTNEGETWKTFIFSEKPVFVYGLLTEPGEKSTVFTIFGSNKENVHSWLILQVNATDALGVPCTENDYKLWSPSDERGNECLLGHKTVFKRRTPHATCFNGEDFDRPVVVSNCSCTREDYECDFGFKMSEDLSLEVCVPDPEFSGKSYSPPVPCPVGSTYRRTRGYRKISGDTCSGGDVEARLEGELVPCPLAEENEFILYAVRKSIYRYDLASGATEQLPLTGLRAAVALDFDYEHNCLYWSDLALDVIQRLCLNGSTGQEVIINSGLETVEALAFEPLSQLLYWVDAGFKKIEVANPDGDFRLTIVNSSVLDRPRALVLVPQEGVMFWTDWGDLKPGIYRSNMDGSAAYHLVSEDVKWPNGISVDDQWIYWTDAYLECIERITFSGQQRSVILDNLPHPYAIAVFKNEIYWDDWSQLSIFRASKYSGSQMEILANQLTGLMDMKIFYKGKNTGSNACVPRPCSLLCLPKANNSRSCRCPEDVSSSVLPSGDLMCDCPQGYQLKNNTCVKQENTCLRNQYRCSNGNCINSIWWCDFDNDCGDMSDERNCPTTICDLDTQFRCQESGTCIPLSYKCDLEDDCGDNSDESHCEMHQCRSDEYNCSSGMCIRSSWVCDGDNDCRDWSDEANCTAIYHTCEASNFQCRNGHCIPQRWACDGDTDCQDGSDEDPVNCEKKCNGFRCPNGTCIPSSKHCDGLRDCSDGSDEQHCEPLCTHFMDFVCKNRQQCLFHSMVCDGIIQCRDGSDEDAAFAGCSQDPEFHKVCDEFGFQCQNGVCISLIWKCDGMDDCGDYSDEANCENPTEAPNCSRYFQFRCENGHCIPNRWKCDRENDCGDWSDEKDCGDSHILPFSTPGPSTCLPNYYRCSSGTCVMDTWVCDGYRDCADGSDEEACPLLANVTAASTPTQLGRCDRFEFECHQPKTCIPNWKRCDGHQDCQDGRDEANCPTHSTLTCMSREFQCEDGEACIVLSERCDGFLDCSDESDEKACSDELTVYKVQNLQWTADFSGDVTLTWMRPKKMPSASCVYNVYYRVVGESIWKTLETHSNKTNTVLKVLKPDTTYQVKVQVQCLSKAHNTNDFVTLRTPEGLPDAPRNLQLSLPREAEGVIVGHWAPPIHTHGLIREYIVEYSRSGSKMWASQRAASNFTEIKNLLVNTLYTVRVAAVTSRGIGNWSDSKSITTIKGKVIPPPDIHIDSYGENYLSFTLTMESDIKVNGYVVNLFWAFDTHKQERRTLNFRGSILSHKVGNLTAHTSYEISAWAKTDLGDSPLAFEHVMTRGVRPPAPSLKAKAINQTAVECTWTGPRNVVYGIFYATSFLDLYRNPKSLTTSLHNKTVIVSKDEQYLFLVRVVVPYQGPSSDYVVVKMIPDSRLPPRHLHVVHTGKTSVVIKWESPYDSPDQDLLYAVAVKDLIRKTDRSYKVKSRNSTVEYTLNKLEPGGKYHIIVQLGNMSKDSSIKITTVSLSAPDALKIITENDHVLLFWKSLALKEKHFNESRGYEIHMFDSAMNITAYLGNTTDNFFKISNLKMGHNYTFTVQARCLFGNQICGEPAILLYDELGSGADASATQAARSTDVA
T1 sequence (P05231 30-212, chain 2 of 2): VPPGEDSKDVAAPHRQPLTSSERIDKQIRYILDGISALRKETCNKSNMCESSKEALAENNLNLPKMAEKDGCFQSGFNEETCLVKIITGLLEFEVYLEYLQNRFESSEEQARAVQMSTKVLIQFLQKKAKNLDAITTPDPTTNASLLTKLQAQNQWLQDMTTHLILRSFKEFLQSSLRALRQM
T2 sequence (Q92673 82-2137): as the sequence (Q92673 82-2137, chain 1 of 2) above

In assay [1], “Interleukin-6 (from UniProt P05231 30-212) (ligand)” returned a Kd of 12 nM. On the same count and under the same terms, next, “soluble IL-6 receptor (IL-6R ectodomain) (from UniProt P08887 20-365)”: 9 nM.

B1: soluble IL-6 receptor (IL-6R ectodomain) (receptor, human, UniProt P08887 20-365, looked up)
chain: LAPRRCPAQEVARGVLTSLPGDSVTLTCPGVEPEDNATVHWVLRKPAAGSHPSRWAGMGRRLLLRSVQLHDSGNYSCYRAGRPAGTVHLLVDVPPEEPQLSCFRKSPLSNVVCEWGPRSTPSLTTKAVLLVRKFQNSPAEDFQEPCQYSQESQKFSCQLAVPEGDSSFYIVSMCVASSVGSKFSKTQTFQGCGILQPDPPANITVTAVARNPRWLSVTWQDPHSWNSSFYRLRFELRYRAERSKTFTTWMVKDLQHHCVIHDAWSGLRHVVQLRAQEEFGQGEWSEWSPEAMGTPWTESRSPPAENEVSTPMQALTTNKDDDNILFRDSANATSLPVQDSSSVPLP
notes: interleukin-6 receptor (alpha chain), human, soluble form consisting only of the ectodomain; also called sIL-6R; recombinant human sIL-6R; source: bought: R&D Systems
Turning to B1, the Kd in assay [2] is 8 nM; in assay [3], approximately 34 nM.

The values are drawn from publication PMC5440653, “SorLA in Interleukin-6 Signaling and Turnover” (Molecular and Cellular Biology, 2017).
